Assay results taken from publication PMC12488921.
“And” between values parts separate entries of the source, which are not always exact repeats. Equal values may be shown once.

Tests used:
Human DNAJB6b (human) [1] = molecular target: Human DNAJB6b (human) (UniProt O75190); test: mass photometry; dissociation kinetics: 34 μM non-labeled JB6 diluted to 50 nM at time zero, 22 and 37 °C; total micelle mass (N > 2) in 60 s of data collection against time
Human DNAJB6b (human) [2] = molecular target: Human DNAJB6b (human) (UniProt O75190); test: mass photometry; JB6 equilibrated at different concentrations (1 to 100 μM), 20 mM NaP, 0.2 mM EDTA, pH 8.0, room temperature; samples above 200 nM diluted to 200 nM less than a minute before a 60 s measurement; also 5 μM JB6 with 0-1.25 M NaCl

Sequence of Human DNAJB6b, O75190-2 1-241 (natural protein; other documents disagree on this pair) (O75190 other isoform, or with tags, fused parts or gaps): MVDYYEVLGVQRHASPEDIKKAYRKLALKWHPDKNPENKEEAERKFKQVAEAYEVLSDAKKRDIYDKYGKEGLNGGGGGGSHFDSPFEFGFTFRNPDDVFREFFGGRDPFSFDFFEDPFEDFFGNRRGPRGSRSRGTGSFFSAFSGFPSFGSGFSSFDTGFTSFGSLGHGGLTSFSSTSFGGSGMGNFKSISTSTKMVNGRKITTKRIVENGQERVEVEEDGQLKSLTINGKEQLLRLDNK

- time scale of micelle dissociation at 37 °C (Human DNAJB6b (human) [1]): 20 min
- stoichiometry N (Human DNAJB6b (human) [2]): 20 and 40
Substance: Human DNAJB6b, O75190-2 1-241 (natural protein; other documents disagree on this pair)
